The values below come from patent US20230357348A1 (AstraZeneca / MedImmune, published 2023).

Starred links: 1 amine or outer side, 2 acyl side, 3 side chain; linkers in the order of their positions; H or OH if unused. Non-standard residues stand in square brackets, D forms with d. Groups on a side chain read outwards from the residue. No end group written: not given here. *: point of attachment. C20 diacid = O=C(O)CCCCCCCCCCCCCCCCCCC(=O)*; C18 diacid = O=C(O)CCCCCCCCCCCCCCCCC(=O)*; γGlu = O=C(O)[C@H](CCC(=O)[*:2])N[*:1]; αMeF = C[C@](N)(Cc1ccccc1)C(=O)O; AEEA = NCCOCCOCC(=O)O; Aib = CC(C)(N)C(=O)O

Assay [1] addresses human glucagon receptor (hGCGR) (human, UniProt P47871 26-477). Briefly: cell-based or functional assay.
For assay [2], the target named is human GLP-1 receptor (hGLP-1R) (human, UniProt P43220 24-463). The assay can be described thus: cell-based or functional assay.

human glucagon receptor (hGCGR), sequence (P47871 26-477): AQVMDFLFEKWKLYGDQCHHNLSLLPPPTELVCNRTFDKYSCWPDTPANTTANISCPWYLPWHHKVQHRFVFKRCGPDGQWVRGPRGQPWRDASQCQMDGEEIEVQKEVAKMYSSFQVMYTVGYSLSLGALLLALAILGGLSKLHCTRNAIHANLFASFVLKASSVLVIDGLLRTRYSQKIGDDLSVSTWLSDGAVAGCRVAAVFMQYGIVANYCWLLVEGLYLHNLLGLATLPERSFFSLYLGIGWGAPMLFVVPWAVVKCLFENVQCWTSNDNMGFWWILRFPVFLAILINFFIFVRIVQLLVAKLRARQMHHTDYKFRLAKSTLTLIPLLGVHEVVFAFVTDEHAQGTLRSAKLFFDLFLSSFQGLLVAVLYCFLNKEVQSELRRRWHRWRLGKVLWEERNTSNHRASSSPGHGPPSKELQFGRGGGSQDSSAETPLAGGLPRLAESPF

B1: Peptide 478 (peptide)
peptide: H[Aib]QGTFTSDVSK[αMeF]LDTK([AEEA-AEEA-γGlu-C18 diacid])RAQDFVRWLLE[Aib]K-NH2
modifications: N-terminus assumed
SMILES: CC(C)C[C@H](NC(=O)[C@H](Cc1c[nH]c2ccccc12)NC(=O)[C@H](CCCNC(=N)N)NC(=O)[C@@H](NC(=O)[C@H](Cc1ccccc1)NC(=O)[C@H](CC(=O)O)NC(=O)[C@H](CCC(N)=O)NC(=O)[C@H](C)NC(=O)[C@H](CCCNC(=N)N)NC(=O)[C@H](CCCCNC(=O)COCCOCCNC(=O)COCCOCCNC(=O)CC[C@H](NC(=O)CCCCCCCCCCCCCCCCC(=O)O)C(=O)O)NC(=O)[C@@H](NC(=O)[C@H](CC(=O)O)NC(=O)[C@H](CC(C)C)NC(=O)[C@](C)(Cc1ccccc1)NC(=O)[C@H](CCCCN)NC(=O)[C@H](CO)NC(=O)[C@@H](NC(=O)[C@H](CC(=O)O)NC(=O)[C@H](CO)NC(=O)[C@@H](NC(=O)[C@H](Cc1ccccc1)NC(=O)[C@@H](NC(=O)CNC(=O)[C@H](CCC(N)=O)NC(=O)C(C)(C)NC(=O)[C@@H](N)Cc1c[nH]cn1)[C@@H](C)O)[C@@H](C)O)C(C)C)[C@@H](C)O)C(C)C)C(=O)N[C@@H](CC(C)C)C(=O)N[C@@H](CCC(=O)O)C(=O)NC(C)(C)C(=O)N[C@@H](CCCCN)C(N)=O
As for B1, the “hGluc-R EC50 (pM)” value in assay [1] amounted to 190 pM. For the same molecule, in assay [2], the “hGLP-1R EC50 (pM)” value was 9.18 pM.

B2: Peptide 480 (peptide)
peptide: H[Aib]QGTFTSDVSK[αMeF]LDTK([AEEA-AEEA-γGlu-C18 diacid])RARDFVQWLLE[Aib]K-NH2
modifications: N-terminus assumed
SMILES: CC(C)C[C@H](NC(=O)[C@H](Cc1c[nH]c2ccccc12)NC(=O)[C@H](CCC(N)=O)NC(=O)[C@@H](NC(=O)[C@H](Cc1ccccc1)NC(=O)[C@H](CC(=O)O)NC(=O)[C@H](CCCNC(=N)N)NC(=O)[C@H](C)NC(=O)[C@H](CCCNC(=N)N)NC(=O)[C@H](CCCCNC(=O)COCCOCCNC(=O)COCCOCCNC(=O)CC[C@H](NC(=O)CCCCCCCCCCCCCCCCC(=O)O)C(=O)O)NC(=O)[C@@H](NC(=O)[C@H](CC(=O)O)NC(=O)[C@H](CC(C)C)NC(=O)[C@](C)(Cc1ccccc1)NC(=O)[C@H](CCCCN)NC(=O)[C@H](CO)NC(=O)[C@@H](NC(=O)[C@H](CC(=O)O)NC(=O)[C@H](CO)NC(=O)[C@@H](NC(=O)[C@H](Cc1ccccc1)NC(=O)[C@@H](NC(=O)CNC(=O)[C@H](CCC(N)=O)NC(=O)C(C)(C)NC(=O)[C@@H](N)Cc1c[nH]cn1)[C@@H](C)O)[C@@H](C)O)C(C)C)[C@@H](C)O)C(C)C)C(=O)N[C@@H](CC(C)C)C(=O)N[C@@H](CCC(=O)O)C(=O)NC(C)(C)C(=O)N[C@@H](CCCCN)C(N)=O
As to B2, the “hGluc-R EC50 (pM)” value in assay [1] came out at 136 pM. Besides, in assay [2], the “hGLP-1R EC50 (pM)” value is 12.6 pM.

B3: Peptide 475 (peptide)
peptide: H[Aib]QGTFTSDVSK[αMeF]LDTK([AEEA-AEEA-γGlu-C20 diacid])RARDFVQWLLA[Aib]G-NH2
modifications: N-terminus assumed
SMILES: CC(C)C[C@H](NC(=O)[C@H](CC(C)C)NC(=O)[C@H](Cc1c[nH]c2ccccc12)NC(=O)[C@H](CCC(N)=O)NC(=O)[C@@H](NC(=O)[C@H](Cc1ccccc1)NC(=O)[C@H](CC(=O)O)NC(=O)[C@H](CCCNC(=N)N)NC(=O)[C@H](C)NC(=O)[C@H](CCCNC(=N)N)NC(=O)[C@H](CCCCNC(=O)COCCOCCNC(=O)COCCOCCNC(=O)CC[C@H](NC(=O)CCCCCCCCCCCCCCCCCCC(=O)O)C(=O)O)NC(=O)[C@@H](NC(=O)[C@H](CC(=O)O)NC(=O)[C@H](CC(C)C)NC(=O)[C@](C)(Cc1ccccc1)NC(=O)[C@H](CCCCN)NC(=O)[C@H](CO)NC(=O)[C@@H](NC(=O)[C@H](CC(=O)O)NC(=O)[C@H](CO)NC(=O)[C@@H](NC(=O)[C@H](Cc1ccccc1)NC(=O)[C@@H](NC(=O)CNC(=O)[C@H](CCC(N)=O)NC(=O)C(C)(C)NC(=O)[C@@H](N)Cc1c[nH]cn1)[C@@H](C)O)[C@@H](C)O)C(C)C)[C@@H](C)O)C(C)C)C(=O)N[C@@H](C)C(=O)NC(C)(C)C(=O)NCC(N)=O
Take B3: in assay [1], the “hGluc-R EC50 (pM)” value is 61.5 pM. The “hGLP-1R EC50 (pM)” value in assay [2] came to 6.75 pM.

B4: Peptide 481 (peptide)
peptide: H[Aib]QGTFTSDVSK[αMeF]LDTK([AEEA-AEEA-γGlu-C20 diacid])RARDFVQWLLE[Aib]K-NH2
modifications: N-terminus assumed
SMILES: CC(C)C[C@H](NC(=O)[C@H](Cc1c[nH]c2ccccc12)NC(=O)[C@H](CCC(N)=O)NC(=O)[C@@H](NC(=O)[C@H](Cc1ccccc1)NC(=O)[C@H](CC(=O)O)NC(=O)[C@H](CCCNC(=N)N)NC(=O)[C@H](C)NC(=O)[C@H](CCCNC(=N)N)NC(=O)[C@H](CCCCNC(=O)COCCOCCNC(=O)COCCOCCNC(=O)CC[C@H](NC(=O)CCCCCCCCCCCCCCCCCCC(=O)O)C(=O)O)NC(=O)[C@@H](NC(=O)[C@H](CC(=O)O)NC(=O)[C@H](CC(C)C)NC(=O)[C@](C)(Cc1ccccc1)NC(=O)[C@H](CCCCN)NC(=O)[C@H](CO)NC(=O)[C@@H](NC(=O)[C@H](CC(=O)O)NC(=O)[C@H](CO)NC(=O)[C@@H](NC(=O)[C@H](Cc1ccccc1)NC(=O)[C@@H](NC(=O)CNC(=O)[C@H](CCC(N)=O)NC(=O)C(C)(C)NC(=O)[C@@H](N)Cc1c[nH]cn1)[C@@H](C)O)[C@@H](C)O)C(C)C)[C@@H](C)O)C(C)C)C(=O)N[C@@H](CC(C)C)C(=O)N[C@@H](CCC(=O)O)C(=O)NC(C)(C)C(=O)N[C@@H](CCCCN)C(N)=O
As for B4, in assay [1], the “hGluc-R EC50 (pM)” value is 350 pM. For the same molecule, in assay [2], the “hGLP-1R EC50 (pM)” value stood at 52.2 pM.

B5: Peptide 477 (peptide)
peptide: H[Aib]QGTFTSDVSK[αMeF]LDTK([AEEA-AEEA-γGlu-C20 diacid])RAQDFVRWLLA[Aib]G-NH2
modifications: N-terminus assumed
SMILES: CC(C)C[C@H](NC(=O)[C@H](CC(C)C)NC(=O)[C@H](Cc1c[nH]c2ccccc12)NC(=O)[C@H](CCCNC(=N)N)NC(=O)[C@@H](NC(=O)[C@H](Cc1ccccc1)NC(=O)[C@H](CC(=O)O)NC(=O)[C@H](CCC(N)=O)NC(=O)[C@H](C)NC(=O)[C@H](CCCNC(=N)N)NC(=O)[C@H](CCCCNC(=O)COCCOCCNC(=O)COCCOCCNC(=O)CC[C@H](NC(=O)CCCCCCCCCCCCCCCCCCC(=O)O)C(=O)O)NC(=O)[C@@H](NC(=O)[C@H](CC(=O)O)NC(=O)[C@H](CC(C)C)NC(=O)[C@](C)(Cc1ccccc1)NC(=O)[C@H](CCCCN)NC(=O)[C@H](CO)NC(=O)[C@@H](NC(=O)[C@H](CC(=O)O)NC(=O)[C@H](CO)NC(=O)[C@@H](NC(=O)[C@H](Cc1ccccc1)NC(=O)[C@@H](NC(=O)CNC(=O)[C@H](CCC(N)=O)NC(=O)C(C)(C)NC(=O)[C@@H](N)Cc1c[nH]cn1)[C@@H](C)O)[C@@H](C)O)C(C)C)[C@@H](C)O)C(C)C)C(=O)N[C@@H](C)C(=O)NC(C)(C)C(=O)NCC(N)=O
With B5, the “hGluc-R EC50 (pM)” value in assay [1] came to 117 pM. Further, in assay [2], the “hGLP-1R EC50 (pM)” value stood at 54.1 pM.

B6: Peptide 474 (peptide)
peptide: H[Aib]QGTFTSDVSK[αMeF]LDTK([AEEA-AEEA-γGlu-C18 diacid])RARDFVQWLLA[Aib]G-NH2
modifications: N-terminus assumed
SMILES: CC(C)C[C@H](NC(=O)[C@H](CC(C)C)NC(=O)[C@H](Cc1c[nH]c2ccccc12)NC(=O)[C@H](CCC(N)=O)NC(=O)[C@@H](NC(=O)[C@H](Cc1ccccc1)NC(=O)[C@H](CC(=O)O)NC(=O)[C@H](CCCNC(=N)N)NC(=O)[C@H](C)NC(=O)[C@H](CCCNC(=N)N)NC(=O)[C@H](CCCCNC(=O)COCCOCCNC(=O)COCCOCCNC(=O)CC[C@H](NC(=O)CCCCCCCCCCCCCCCCC(=O)O)C(=O)O)NC(=O)[C@@H](NC(=O)[C@H](CC(=O)O)NC(=O)[C@H](CC(C)C)NC(=O)[C@](C)(Cc1ccccc1)NC(=O)[C@H](CCCCN)NC(=O)[C@H](CO)NC(=O)[C@@H](NC(=O)[C@H](CC(=O)O)NC(=O)[C@H](CO)NC(=O)[C@@H](NC(=O)[C@H](Cc1ccccc1)NC(=O)[C@@H](NC(=O)CNC(=O)[C@H](CCC(N)=O)NC(=O)C(C)(C)NC(=O)[C@@H](N)Cc1c[nH]cn1)[C@@H](C)O)[C@@H](C)O)C(C)C)[C@@H](C)O)C(C)C)C(=O)N[C@@H](C)C(=O)NC(C)(C)C(=O)NCC(N)=O
For B6, the “hGluc-R EC50 (pM)” value in assay [1] turned out to be 56.9 pM. For the same molecule, in assay [2], the “hGLP-1R EC50 (pM)” value amounted to 8.04 pM.

B7: Peptide 479 (peptide)
peptide: H[Aib]QGTFTSDVSK[αMeF]LDTK([AEEA-AEEA-γGlu-C20 diacid])RAQDFVRWLLE[Aib]K-NH2
modifications: N-terminus assumed
SMILES: CC(C)C[C@H](NC(=O)[C@H](Cc1c[nH]c2ccccc12)NC(=O)[C@H](CCCNC(=N)N)NC(=O)[C@@H](NC(=O)[C@H](Cc1ccccc1)NC(=O)[C@H](CC(=O)O)NC(=O)[C@H](CCC(N)=O)NC(=O)[C@H](C)NC(=O)[C@H](CCCNC(=N)N)NC(=O)[C@H](CCCCNC(=O)COCCOCCNC(=O)COCCOCCNC(=O)CC[C@H](NC(=O)CCCCCCCCCCCCCCCCCCC(=O)O)C(=O)O)NC(=O)[C@@H](NC(=O)[C@H](CC(=O)O)NC(=O)[C@H](CC(C)C)NC(=O)[C@](C)(Cc1ccccc1)NC(=O)[C@H](CCCCN)NC(=O)[C@H](CO)NC(=O)[C@@H](NC(=O)[C@H](CC(=O)O)NC(=O)[C@H](CO)NC(=O)[C@@H](NC(=O)[C@H](Cc1ccccc1)NC(=O)[C@@H](NC(=O)CNC(=O)[C@H](CCC(N)=O)NC(=O)C(C)(C)NC(=O)[C@@H](N)Cc1c[nH]cn1)[C@@H](C)O)[C@@H](C)O)C(C)C)[C@@H](C)O)C(C)C)C(=O)N[C@@H](CC(C)C)C(=O)N[C@@H](CCC(=O)O)C(=O)NC(C)(C)C(=O)N[C@@H](CCCCN)C(N)=O
On to B7, for which the “hGluc-R EC50 (pM)” value in assay [1] is 207 pM. In assay [2], the “hGLP-1R EC50 (pM)” value was determined as 34.2 pM.
